Reference: patent US20110158985A1
Changes are numbered by the printed parent chain.

B1: P12f4 Fab (Fab, V domains shown)
VH: QVTLRESGPALVKPTQTLTLTCTFSGFSLSTPGMSVGWIRQPPGKALEWLADIWWDGKKHYNPSLKDRLTISKDTSKNQVVLKVTNMDPADTATYYCARDMIFNFYFDVWGQGTTVTVSS
VL: DIQMTQSPSTLSASVGDRVTITCSLSSRVGYMHWYQQKPGKAPKLLIYDTRGLPSGVPSRFSGSGSGTEFTLTISSLQPDDFATYYCFQGSGYPFTFGGGTKVEIK
B2: A1h5 Fab (Fab, V domains shown)
VH: B1 VH with P32A, F105W
VL: B1 VL with R28S, R51F, G52F, L53H, P54R

Substrate: F protein of RSV (Long strain) (RSV (Long strain)) (UniProt P12568)
Sequence (P12568 26-574): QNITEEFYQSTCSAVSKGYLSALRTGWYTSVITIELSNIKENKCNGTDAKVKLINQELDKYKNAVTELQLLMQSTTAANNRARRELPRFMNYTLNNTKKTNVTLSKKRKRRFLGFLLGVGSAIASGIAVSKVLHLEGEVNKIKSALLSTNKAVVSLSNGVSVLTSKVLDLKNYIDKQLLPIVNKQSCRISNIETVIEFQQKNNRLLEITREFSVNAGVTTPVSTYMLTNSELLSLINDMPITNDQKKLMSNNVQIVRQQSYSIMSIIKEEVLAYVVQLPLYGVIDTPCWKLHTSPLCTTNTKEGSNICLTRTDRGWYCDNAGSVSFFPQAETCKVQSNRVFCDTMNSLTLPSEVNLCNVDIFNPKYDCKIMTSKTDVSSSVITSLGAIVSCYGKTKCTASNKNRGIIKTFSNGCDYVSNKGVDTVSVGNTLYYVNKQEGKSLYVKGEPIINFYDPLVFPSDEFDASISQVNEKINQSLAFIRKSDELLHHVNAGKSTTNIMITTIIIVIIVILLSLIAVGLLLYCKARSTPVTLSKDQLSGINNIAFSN
Assay: cell-based or functional assay

Row | Binder | IC50 [nM] | Mean IC50 (Control) [µg/mL] | Mean IC50 (Curve) [µg/mL]
1 | B1 | 0.7 | 0.0351 | 0.0464
2 | B2 | – | 0.176 | 0.194
